Test results published in article PMC4434323.

What follows are sequences tested against T1, Y53H1A.2 (Y53H1A.2) (Caenorhabditis elegans) (UniProt B1V8K4).
T1 sequence: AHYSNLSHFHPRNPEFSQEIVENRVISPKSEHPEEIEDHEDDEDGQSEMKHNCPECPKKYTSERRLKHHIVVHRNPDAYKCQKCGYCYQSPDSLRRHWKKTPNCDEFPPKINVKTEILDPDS

Sequence | binding signal (PBM E-score (-0.5 to 0.5))
CGACCACC (double strand) [8-mer CGACCACC] | 0.486
GGTGGGCA (double strand) [8-mer GGTGGGCA] | 0.487
GGTCGGCA (double strand) [8-mer GGTCGGCA] | 0.481
CGGTCGTC (double strand) [8-mer CGGTCGTC] | 0.483
CCACCACC (double strand) [8-mer CCACCACC] | 0.486
CGGTGGTC (double strand) [8-mer CGGTGGTC] | 0.481
CGGCCGGC (double strand) [8-mer CGGCCGGC] | 0.486
CGGTCGGC (double strand) [8-mer CGGTCGGC] | 0.487
CGGCCGAC (double strand) [8-mer CGGCCGAC] | 0.486
ACCACCGC (double strand) [8-mer ACCACCGC] | 0.483
CGGCCGCC (double strand) [8-mer CGGCCGCC] | 0.489
CGGCGGCC (double strand) [8-mer CGGCGGCC] | 0.485
GCGGCCGC (double strand) [8-mer GCGGCCGC] | 0.488
CGGTGGGC (double strand) [8-mer CGGTGGGC] | 0.491

What follows are sequences tested against T2, lin-29 (W03C9.4) (Caenorhabditis elegans) (UniProt G5EGB2).
T2 sequence: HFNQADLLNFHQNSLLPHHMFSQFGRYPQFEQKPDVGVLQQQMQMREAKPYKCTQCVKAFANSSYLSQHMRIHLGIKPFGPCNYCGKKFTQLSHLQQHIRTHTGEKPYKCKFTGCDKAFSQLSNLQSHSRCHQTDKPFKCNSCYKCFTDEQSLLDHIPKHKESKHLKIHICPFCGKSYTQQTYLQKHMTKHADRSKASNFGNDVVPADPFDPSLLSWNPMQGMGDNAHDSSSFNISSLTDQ

Sequence | binding signal (PBM E-score (-0.5 to 0.5))
AAAAAACT (double strand) [8-mer AAAAAACT] | 0.495
AAAAAAAA (double strand) [8-mer AAAAAAAA] | 0.499
ATAAAAAA (double strand) [8-mer ATAAAAAA] | 0.498
AGAAAAAA (double strand) [8-mer AGAAAAAA] | 0.494
GTTTTTTA (double strand) [8-mer GTTTTTTA] | 0.494
CAAAAAAA (double strand) [8-mer CAAAAAAA] | 0.496
CATAAAAA (double strand) [8-mer CATAAAAA] | 0.494
GTAAAAAA (double strand) [8-mer GTAAAAAA] | 0.494
TAAAAAAA (double strand) [8-mer TAAAAAAA] | 0.498
GAAAAAAA (double strand) [8-mer GAAAAAAA] | 0.495
AAAAAAAT (double strand) [8-mer AAAAAAAT] | 0.496
AAAAAAAC (double strand) [8-mer AAAAAAAC] | 0.497
TATAAAAA (double strand) [8-mer TATAAAAA] | 0.494
AAAAAAAG (double strand) [8-mer AAAAAAAG] | 0.495
GCAAAAAA (double strand) [8-mer GCAAAAAA] | 0.494

The sequences below were run against T3, K11D2.4 (K11D2.4) (Caenorhabditis elegans) (UniProt G5EBU1).
T3 sequence: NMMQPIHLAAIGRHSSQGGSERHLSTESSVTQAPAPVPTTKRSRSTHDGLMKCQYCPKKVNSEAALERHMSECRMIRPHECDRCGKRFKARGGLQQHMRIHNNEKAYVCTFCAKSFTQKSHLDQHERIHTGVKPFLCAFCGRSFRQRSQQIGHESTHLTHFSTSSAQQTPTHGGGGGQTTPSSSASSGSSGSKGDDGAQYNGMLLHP

Sequence | binding signal (PBM E-score (-0.5 to 0.5))
AAAAAAAA (double strand) [8-mer AAAAAAAA] | 0.5
ATAAAAAA (double strand) [8-mer ATAAAAAA] | 0.498
AGAAAAAA (double strand) [8-mer AGAAAAAA] | 0.498
CAAAAAAA (double strand) [8-mer CAAAAAAA] | 0.498
TAAAAAAA (double strand) [8-mer TAAAAAAA] | 0.498
GAAAAAAA (double strand) [8-mer GAAAAAAA] | 0.498
AAAAAAAT (double strand) [8-mer AAAAAAAT] | 0.498
AAAAAAAC (double strand) [8-mer AAAAAAAC] | 0.498
AAAAAAAG (double strand) [8-mer AAAAAAAG] | 0.498

Each sequence was assayed against T4, T22C8.4 (T22C8.4) (Caenorhabditis elegans) (UniProt Q22677).
T4 sequence: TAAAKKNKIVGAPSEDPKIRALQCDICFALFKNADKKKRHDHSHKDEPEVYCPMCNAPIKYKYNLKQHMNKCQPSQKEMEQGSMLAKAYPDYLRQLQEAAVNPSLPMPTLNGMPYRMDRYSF

Sequence | binding signal (PBM E-score (-0.5 to 0.5))
CCCTGCTC (double strand) [8-mer CCCTGCTC] | 0.479
CCCCTGCC (double strand) [8-mer CCCCTGCC] | 0.479
CCCCCTGC (double strand) [8-mer CCCCCTGC] | 0.488
GCAGGGGA (double strand) [8-mer GCAGGGGA] | 0.495

The sequences below were run against T5, ztf-6 (W06H12.1) (Caenorhabditis elegans) (UniProt G5EC77).
T5 sequence: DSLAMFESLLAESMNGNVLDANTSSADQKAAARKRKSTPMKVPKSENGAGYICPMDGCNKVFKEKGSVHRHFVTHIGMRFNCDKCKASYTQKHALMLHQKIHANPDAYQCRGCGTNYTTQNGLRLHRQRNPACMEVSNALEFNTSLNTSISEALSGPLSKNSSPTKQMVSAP

Sequence | binding signal (PBM E-score (-0.5 to 0.5))
ATCTGAAA (double strand) [8-mer ATCTGAAA] | 0.492
CGCTGAAA (double strand) [8-mer CGCTGAAA] | 0.49
GCTGAAAA (double strand) [8-mer GCTGAAAA] | 0.492
AGTTTCAG (double strand) [8-mer AGTTTCAG] | 0.496
ATTTCAGA (double strand) [8-mer ATTTCAGA] | 0.491
GCTGAAAC (double strand) [8-mer GCTGAAAC] | 0.495
AGCTGAAA (double strand) [8-mer AGCTGAAA] | 0.491
TCTGAAAA (double strand) [8-mer TCTGAAAA] | 0.492
TGCTGAAA (double strand) [8-mer TGCTGAAA] | 0.494
GGCTGAAA (double strand) [8-mer GGCTGAAA] | 0.491
ATTTTCAG (double strand) [8-mer ATTTTCAG] | 0.493
ATTTCAGC (double strand) [8-mer ATTTCAGC] | 0.492
GTCTGAAA (double strand) [8-mer GTCTGAAA] | 0.495
GTTTCAGA (double strand) [8-mer GTTTCAGA] | 0.494
AATTTCAG (double strand) [8-mer AATTTCAG] | 0.493

What follows are sequences tested against T6, egrh-3 (Y94H6A.11) (Caenorhabditis elegans) (UniProt U4PLQ8).
T6 sequence: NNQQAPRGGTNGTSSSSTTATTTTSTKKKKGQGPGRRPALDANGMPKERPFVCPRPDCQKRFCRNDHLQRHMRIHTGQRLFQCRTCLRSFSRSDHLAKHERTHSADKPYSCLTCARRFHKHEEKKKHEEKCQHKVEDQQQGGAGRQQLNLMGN

Sequence | binding signal (PBM E-score (-0.5 to 0.5))
CCTCCCCC (double strand) [8-mer CCTCCCCC] | 0.496
GGGGGGAA (double strand) [8-mer GGGGGGAA] | 0.493
GGGGGAGA (double strand) [8-mer GGGGGAGA] | 0.493
GCCCCCCC (double strand) [8-mer GCCCCCCC] | 0.496
AAGGGGGG (double strand) [8-mer AAGGGGGG] | 0.495
ACCCCCCC (double strand) [8-mer ACCCCCCC] | 0.497
GGGGGGGA (double strand) [8-mer GGGGGGGA] | 0.499
CCCCCCTC (double strand) [8-mer CCCCCCTC] | 0.497
CCCCCCAC (double strand) [8-mer CCCCCCAC] | 0.495
CTCCCCCC (double strand) [8-mer CTCCCCCC] | 0.497

Each sequence was assayed against T7, ztf-29 (Y66D12A.12) (Caenorhabditis elegans) (UniProt Q95Q03).
T7 sequence: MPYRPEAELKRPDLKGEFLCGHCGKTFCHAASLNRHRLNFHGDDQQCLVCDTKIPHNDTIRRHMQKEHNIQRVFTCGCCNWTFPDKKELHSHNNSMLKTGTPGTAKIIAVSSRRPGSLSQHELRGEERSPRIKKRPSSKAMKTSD

Sequence | binding signal (PBM E-score (-0.5 to 0.5))
AAAAGCTT (double strand) [8-mer AAAAGCTT] | 0.492
AAGCTTGT (double strand) [8-mer AAGCTTGT] | 0.489

These sequences were tested against T8, ztf-19 (T27B1.2) (Caenorhabditis elegans) (UniProt Q22829).
T8 sequence: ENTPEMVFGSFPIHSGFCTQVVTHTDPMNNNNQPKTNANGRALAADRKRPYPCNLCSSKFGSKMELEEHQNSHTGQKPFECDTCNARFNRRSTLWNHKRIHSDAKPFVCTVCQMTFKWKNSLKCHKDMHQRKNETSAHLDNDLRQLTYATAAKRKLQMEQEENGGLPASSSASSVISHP

Sequence | binding signal (PBM E-score (-0.5 to 0.5))
TAGTGTAA (double strand) [8-mer TAGTGTAA] | 0.495
CATTACAC (double strand) [8-mer CATTACAC] | 0.494
AGTGTAAA (double strand) [8-mer AGTGTAAA] | 0.494
CAGTGTAA (double strand) [8-mer CAGTGTAA] | 0.494
GTGTAATA (double strand) [8-mer GTGTAATA] | 0.497
AGTGTAAC (double strand) [8-mer AGTGTAAC] | 0.491
AGTGTAAT (double strand) [8-mer AGTGTAAT] | 0.497
TGTGTAAA (double strand) [8-mer TGTGTAAA] | 0.491
CGTTGTAA (double strand) [8-mer CGTTGTAA] | 0.493
ATTACACA (double strand) [8-mer ATTACACA] | 0.493
ATTACAAC (double strand) [8-mer ATTACAAC] | 0.496
CTTTACAC (double strand) [8-mer CTTTACAC] | 0.494
GTGTAACA (double strand) [8-mer GTGTAACA] | 0.494
